Results reported in patent publication US10947272B2, “BACE1 inhibitor peptides” (HOFFMANN-LA ROCHE INC., priority 2015, dated 2021).
Values joined by “and” are separate entries in the source; they are usually repeats but may differ in a detail not shown here. Identical values can stand only once. Numbered stars: 1 amine (or outer) side, 2 acyl side, 3 side chain; on linkers, the order of the positions; unused ones are H or OH. Square brackets hold non-standard residues; d marks the D form. Primed or numbered codes have the meaning given here. Ends that are not written are not given here. * marks the point of attachment. PEG(4) = non-peptide PEG linker joining two peptide parts; MetSta(3S,4S) = CSCC[C@H](N[*:1])[C@@H](O)CC(=O)[*:2]; Biotin = O=C1N[C@H]2[C@H](CS[C@H]2CCCCC(=O)*)N1; Sta = CC(C)C[C@H](N)[C@@H](O)CC(=O)O; PEG4 = NCCOCCOCCOCCOCCC(=O)O; PEG3 = NCCOCCOCCOCCC(=O)O; PEG8′ = not defined here; AEEA = NCCOCCOCC(=O)O

B1: TPKPAQG-GkG-EVN-Sta-VAEp-NH2 × 3TFA (peptide)
peptide: TPKPAQGG[dK]GEVN[Sta]VAE[dP]-NH2
modifications: also: TFA salt (3 TFA)
B2: Tyr-Pro-Tyr-Phe-Ile-Pro-DLys-PEG(4)-Glu-Val-Asn-Leu*Ala-Ala-Glu-DPro-NH2 × 2TFA (peptide)
peptide: YPYFIP[dK][PEG(4)]EVNLAAE[dP]-NH2
modifications: numbers in words are those of the source; also: Leu11-Ala12 as Leu*Ala hydroxyethylene dipeptide isostere, 2TFA salt
B3: Tyr-Pro-Tyr-Phe-Ile-Pro-Leu-Gly-DLys-Gly-Glu-Val-Asn-Sta-Val-Ala-Glu-DPro-NH2 × 2TFA (peptide)
peptide: YPYFIPLG[dK]GEVN[Sta]VAE[dP]-NH2
modifications: also: 2TFA salt
B4: Tyr-Pro-Tyr-Phe-DLys-Leu-Gly-DLys-Gly-Glu-Val-Asn-Leu*Ala-Ala-Glu-DPro-NH2 × 3TFA (peptide)
peptide: YPYF[dK]LG[dK]GEVNLAAE[dP]-NH2
modifications: also: Leu13-Ala14 hydroxyethylene dipeptide isostere (Leu*Ala) in place of the amide bond, 3TFA salt
B5: 1 H-Tyr-Pro-Lys-Phe-Ile-Pro-Leu-PEG(4)-Glu-Val-Asn-Sta-Val-Ala-Glu-DPro-NH2 × 3TFA (peptide)
peptide: H-YPKFIPL[PEG4]EVN[Sta]VAE[dP]-NH2
modifications: numbers in words are those of the source; also: 3TFA salt
B6: Ac-DTyr-Pro-Tyr-Phe-Ile-Pro-Leu-Gly-DLys-Gly-Glu-Val-Asn-Sta-Val-Ala-Glu-DPro-NH2 × TFA (peptide)
peptide: Ac-[dY]PYFIPLG[dK]GEVN[Sta]VAE[dP]-NH2
modifications: also: TFA salt
B7: Tyr-Pro-Tyr-Phe-Ile-Pro-DLys-Gly-DLys-Gly-Glu-Val-Asn-MetSta-Val-Ala-Glu-DPhe-NH2 × 3TFA (peptide)
peptide: YPYFIP[dK]G[dK]GEVN[MetSta(3S,4S)]VAE[dF]-NH2
modifications: also: TFA salt (3 TFA)
B8: H-Tyr-Pro-DLys-Phe-Ile-Pro-Leu-Gly-DLys-Gly-Glu-Val-Asn-Sta-Val-Ala-Glu-DPro-NH2 (peptide)
peptide: H-YP[dK]FIPLG[dK]GEVN[Sta]VAE[dP]-NH2
modifications: also: TFA salt
B9: H-DTyr-Pro-Tyr-Phe-Ile-Pro-DLys-Gly-DLys-Gly-Glu-Val-Asn-Sta-Val-Ala-Glu-DPro-NH2 × 3TFA (peptide)
peptide: H-[dY]PYFIP[dK]G[dK]GEVN[Sta]VAE[dP]-NH2
modifications: also: TFA salt (3 TFA)
B10: Biotin-PEG2-Cys-PEG8-Tyr-Pro-Tyr-Phe-Ile-Pro-DLys-Gly-DLys-Gly-Glu-Val-Asn-Sta-Val-Ala-Glu-DPro-NH2 (peptide)
peptide: {Biotin-AEEA}-C[PEG8′]YPYFIP[dK]G[dK]GEVN[Sta]VAE[dP]-NH2
modifications: also: TFA salt
B11: H-Tyr-Pro-Tyr-Phe-DLys-Pro-Leu-PEG(4)-Glu-Val-Asn-Sta-Val-Ala-Glu-DPro-NH2 × 2TFA (peptide)
peptide: H-YPYF[dK]PL[PEG4]EVN[Sta]VAE[dP]-NH2
modifications: numbers in words are those of the source; also: TFA salt (2 TFA)
B12: Biotin-PEG2-Cys-PEG3-Tyr-Pro-Tyr-Phe-Ile-Pro-DLys-Gly-DLys-Gly-Glu-Val-Asn-Sta-Val-Ala-Glu-DPro-NH2 (peptide)
peptide: {Biotin-AEEA}-C[PEG3]YPYFIP[dK]G[dK]GEVN[Sta]VAE[dP]-NH2
modifications: also: TFA salt
B13: H-Tyr-Pro-Tyr-Phe-DLys-Leu-PEG(4)-Glu-Val-Asn-Sta-Val-Ala-Glu-DPro-NH2 × 3TFA (peptide)
peptide: H-YPYF[dK]L[PEG4]EVN[Sta]VAE[dP]-NH2
modifications: also: TFA salt
B14: YPKFISA-GkG-EVN-Sta-VAEp-NH2 × 3TFA (peptide)
peptide: YPKFISAG[dK]GEVN[Sta]VAE[dP]-NH2
modifications: also: 3TFA salt
B15: Tyr-Pro-Tyr-Phe-Ile-DLys-Leu-Gly-DLys-Gly-Glu-Val-Asn-Sta-Val-Ala-Glu-DPro-NH2 × 3TFA (peptide)
peptide: YPYFI[dK]LG[dK]GEVN[Sta]VAE[dP]-NH2
modifications: also: TFA salt (3 TFA)
B16: H-Tyr-DLys-Tyr-Phe-Ile-Pro-Leu-Gly-DLys-Gly-Glu-Val-Asn-Sta-Val-Ala-Glu-DPro-NH2 (peptide)
peptide: H-Y[dK]YFIPLG[dK]GEVN[Sta]VAE[dP]-NH2
modifications: also: TFA salt
B17: H-Gly-Gly-Gly-Tyr-Pro-Tyr-Phe-Ile-Pro-DLys-Gly-DLys-Gly-Glu-Val-Asn-Sta-Val-Ala-Glu-DPro-NH2 × 3TFA (peptide)
peptide: H-GGGYPYFIP[dK]G[dK]GEVN[Sta]VAE[dP]-NH2
modifications: also: TFA salt
B18: Tyr-Pro-Tyr-Phe-Ile-Pro-Leu-Gly-DLys-Gly-Glu-Val-Asn-MetSta-Val-Ala-Glu-Pro-NH2 × 2TFA (peptide)
peptide: YPYFIPLG[dK]GEVN[MetSta(3S,4S)]VAEP-NH2
modifications: also: 2TFA salt
B19: DLys-Pro-Tyr-Phe-Ile-Pro-Leu-Gly-DLys-Gly-Glu-Val-Asn-Sta-Val-Ala-Glu-DPro-NH2 × 3TFA (peptide)
peptide: [dK]PYFIPLG[dK]GEVN[Sta]VAE[dP]-NH2
modifications: also: TFA salt (3 TFA)
B20: Tyr-Pro-Tyr-Phe-Ile-Pro-DLys-PEG(4)-Glu-Val-Asn-MetSta-Val-Ala-Glu-DPro-NH2 × 2TFA (peptide)
peptide: YPYFIP[dK][PEG(4)]EVN[MetSta(3S,4S)]VAE[dP]-NH2
modifications: numbers in words are those of the source; also: TFA salt (2 TFA)
B21: Tyr-Pro-Tyr-Phe-Ile-Pro-DLys-Gly-DLys-Gly-Glu-Val-Asn-MetSta-Val-Ala-Glu-Pro-NH2 × 3TFA (peptide)
peptide: YPYFIP[dK]G[dK]GEVN[MetSta(3S,4S)]VAEP-NH2
modifications: also: TFA salt (3 TFA)
B22: Tyr-Pro-Tyr-Phe-Ile-Pro-Leu-Gly-Gly-Gly-Glu-Val-Asn-Sta-Val-Ala-Glu-DPro-NH2 × TFA (peptide)
peptide: YPYFIPLGGGEVN[Sta]VAE[dP]-NH2
modifications: also: TFA salt
B23: H-DTyr-Pro-Tyr-Phe-Ile-Pro-Leu-Gly-DLys-Gly-Glu-Val-Asn-Sta-Val-Ala-Glu-DPro-NH2 × 2TFA (peptide)
peptide: H-[dY]PYFIPLG[dK]GEVN[Sta]VAE[dP]-NH2
modifications: also: TFA salt (2 TFA)
B24: Tyr-Pro-Lys-Phe-Ile-Pro-Leu-Gly-DLys-Gly-Glu-Val-Asn-MetSta-Val-Ala-Glu-Pro-NH2 × 3TFA (peptide)
peptide: YPKFIPLG[dK]GEVN[MetSta(3S,4S)]VAEP-NH2
modifications: also: TFA salt (3 TFA)
B25: H-Tyr-Pro-Tyr-Phe-Ile-Pro-DLys-PEG(4)-Glu-Val-Asn-Sta-Val-Ala-Glu-DPro-NH2 × 2TFA (peptide)
peptide: H-YPYFIP[dK][PEG4]EVN[Sta]VAE[dP]-NH2
modifications: numbers in words are those of the source; also: TFA salt (2 TFA)
B26: Tyr-Pro-Tyr-Phe-Ile-Pro-Leu-PEG(4)-Glu-Val-Asn-Sta-Val-Ala-Glu-DPro-NH2 × TFA (peptide)
peptide: YPYFIPL[PEG4]EVN[Sta]VAE[dP]-NH2
modifications: also: TFA salt
B27: Gly-Ala-Arg-Phe-Ile-Pro-Ala-Gly-DLys-Gly-Glu-Val-Asn-Sta-Val-Ala-Glu-DPro-NH2 × 3TFA (peptide)
peptide: GARFIPAG[dK]GEVN[Sta]VAE[dP]-NH2
modifications: also: TFA salt (3 TFA)
B28: Tyr-Pro-Tyr-Phe-Lys-Pro-Ala-Gly-DLys-Gly-Glu-Val-Asn-Sta-Val-Ala-Glu-DPro-NH2 × 3TFA (peptide)
peptide: YPYFKPAG[dK]GEVN[Sta]VAE[dP]-NH2
modifications: also: 3TFA salt
B29: Tyr-Pro-Tyr-Phe-DLys-Pro-Leu-Gly-DLys-Gly-Glu-Val-Asn-Sta-Val-Ala-Glu-DPro-NH2 × 3TFA (peptide)
peptide: YPYF[dK]PLG[dK]GEVN[Sta]VAE[dP]-NH2
modifications: also: TFA salt (3 TFA)

Molecular target: BACE1 (Asp2, β-secretase, Memapsin-2) in HEK293 cells stably expressing human APP695 (UniProt P56817 46-501, limits assumed)
Test: cell-based or functional assay

Chain of BACE1 (Asp2, β-secretase, Memapsin-2) in HEK293 cells stably expressing human APP695 (P56817 46-501 limits assumed): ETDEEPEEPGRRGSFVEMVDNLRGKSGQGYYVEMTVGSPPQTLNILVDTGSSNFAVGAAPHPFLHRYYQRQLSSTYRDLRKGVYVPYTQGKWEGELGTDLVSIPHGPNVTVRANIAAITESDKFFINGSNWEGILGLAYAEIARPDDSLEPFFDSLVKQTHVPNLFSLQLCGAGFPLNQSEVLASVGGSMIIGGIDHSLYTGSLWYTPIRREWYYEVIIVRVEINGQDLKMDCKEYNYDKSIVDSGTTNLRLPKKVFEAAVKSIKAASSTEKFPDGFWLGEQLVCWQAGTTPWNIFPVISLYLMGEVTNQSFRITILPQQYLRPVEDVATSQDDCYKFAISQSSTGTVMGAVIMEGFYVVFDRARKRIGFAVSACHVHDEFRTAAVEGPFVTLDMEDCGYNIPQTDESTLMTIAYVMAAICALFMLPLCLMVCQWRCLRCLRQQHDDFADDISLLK

Row | Binder | IC 50, cellular Aβ-lowering assay (Aβ40 in supernatant of HEK293 cells expressing human APP695)
1 | B1 | > 40000 nM
2 | B2 | 15 nM
3 | B3 | 94 nM
4 | B4 | 34 nM
5 | B5 | 52 nM
6 | B6 | 110 nM
7 | B7 | 190 nM
8 | B8 | 29300 nM
9 | B9 | 63 nM
10 | B10 | 18 nM
11 | B11 | > 40000 nM
12 | B12 | 26 nM
13 | B13 | > 40000 nM
14 | B14 | 750 nM
15 | B15 | > 40000 nM
16 | B16 | > 40000 nM
17 | B17 | 6.4 nM
18 | B18 | 470 nM
19 | B19 | 2930 nM
20 | B20 | 1010 nM
21 | B21 | 15 nM
22 | B22 | 420 nM
23 | B23 | 810 nM
24 | B24 | 760 nM
25 | B25 | 45 nM
26 | B26 | 2.7 nM
27 | B27 | 420 nM
28 | B28 | 71 nM and 46 nM
29 | B29 | > 40000 nM
